Changes are numbered by the printed parent chain. Names may count otherwise.
B1: Gs-Ldh: (L)-lactate dehydrogenase of Geobacillus stearothermophilus, SEQ ID NO: 10 (protein, listed as Geobacillus sterarothermophillus)
chain: MKNNGGARVVVIGAGFVGASYVFALMNQGIADEIVLIDANESKAIGDAMDFNHGKVFAPKPVDIWHGDYDDCRDADLVVICAGANQKPGETRLDLVDKNIAIFRSIVESVMASGFQGLFLVATNPVDILTYATWKFSGLPHERVIGSGTILDTARFRFLLGEYFSVAPQNVHAYIIGEHGDTELPVWSQAYIGVMPIRKLVESKGEEAQKDLERIFVNVRDAAYQIIEKKGATYYGIAMGLARVTRAILHNENAILTVSAYLDGLYGERDVYIGVPAVINRNGIREVIEIELNDDEKNRFHHSAATLKSVLARAFTR
B2: Ec-Mdh: (L)-malate dehydrogenase from Escherichia coli, SEQ ID NO: 2 (protein, listed as Escherichia coli)
chain: MKVAVLGAAGGIGQALALLLKTQLPSGSELSLYDIAPVTPGVAVDLSHIPTAVKIKGFSGEDATPALEGADVVLISAGVARKPGMDRSDLFNVNAGIVKNLVQQVAKTCPKACIGIITNPVNTTVAIAAEVLKKAGVYDKNKLFGVTTLDIIRSNTFVAELKGKQPGEVEVPVIGGHSGVTILPLLSQVPGVSFTEQEVADLTKRIQNAGTEVVEAKAGGGSATLSMGQAAARFGLSLVRALQGEQGVVECAYVEGDGQYARFFSQPLLLGKNGVEERKSIGTLSAFEQNALEGMLDTLKKDIALGEEFVNK
B3: R81A G179D D86S: E. coli malate dehydrogenase mutant, SEQ ID No. 118 (protein, listed as Escherichia coli)
chain: B2 chain with R81A, D86S, G179D
B4: R81A G179D: E. coli malate dehydrogenase mutant, SEQ ID No. 112 (protein, listed as Escherichia coli)
chain: B2 chain with R81A, G179D
B5: R81A 112V: E. coli malate dehydrogenase mutant, SEQ ID No. 115 as printed (protein, listed as Escherichia coli)
chain: B2 chain with I12V, R81A
B6: R81A M85E: E. coli malate dehydrogenase mutant, SEQ ID No. 106 (protein, listed as Escherichia coli)
chain: B2 chain with R81A, M85E
B7: R81A M85E I12V: E. coli malate dehydrogenase mutant, SEQ ID No. 110 (protein, listed as Escherichia coli)
chain: B2 chain with I12V, R81A, M85E
B8: R81A D86S: E. coli malate dehydrogenase mutant, SEQ ID No. 1114 as printed (protein, UniProt P61889 1-312, looked up, variant R81A D86S)
Malate dehydrogenase: B2 chain with R81A, D86S
B9: R81A M85Q I12V: E. coli malate dehydrogenase mutant, SEQ ID No. 108 (protein, listed as Escherichia coli)
chain: B2 chain with I12V, R81A, M85Q
B10: R81A M85Q: E. coli malate dehydrogenase mutant, SEQ ID No. 104 (protein, listed as Escherichia coli)
chain: B2 chain with R81A, M85Q
B11: Bs-Ldh: (L)-lactate dehydrogenase of Bacillus subtilis, SEQ ID NO: 8 (protein, listed as Bacillus subtilis)
chain: MMNKHVNKVALIGAGFVGSSYAFALINQGITDELVVIDVNKEKAMGDVMDLNHGKAFAPQPVKTSYGTYEDCKDADIVCICAGANQKPGETRLELVEKNLKIFKGIVSEVMASGFDGIFLVATNPVDILTYATWKFSGLPKERVIGSGTTLDSARFRFMLSEYFGAAPQNVHAHIIGEHGDTELPVWSHANVGGVPVSELVEKNDAYKQEELDQIVDDVKNAAYHIIEKKGATYYGVAMSLARITKAILHNENSILTVSTYLDGQYGADDVYIGVPAVVNRGGIAGITELNLNEKEKEQFLHSAGVLKNILKPHFAEQKVN
B12: Ec-LdhA: (D)-lactate dehydrogenase from Escherichia coli, SEQ ID NO: 4 (protein, listed as Escherichia coli)
chain: MKLAVYSTKQYDKKYLQQVNESFGFELEFFDFLLTEKTAKTANGCEAVCIFVNDDGSRPVLEELKKHGVKYIALRCAGFNNVDLDAAKELGLKVVRVPAYDPEAVAEHAIGMMMTLNRRIHRAYQRTRDANFSLEGLTGFTMYGKTAGVIGTGKIGVAMLRILKGFGMRLLAFDPYPSAAALELGVEYVDLPTLFSESDVISLHCPLTPENYHLLNEAAFEQMKNGVMIVNTSRGALIDSQAAIEALKNQKIGSLGMDVYENERDLFFEDKSNDVIQDDVFRRLSACHNVLFTGHQAFLTAEALTSISQTTLQNLSNLEKGETCPNELV
B13: R81A: E. coli malate dehydrogenase mutant R81A, SEQ ID No. 102 (protein, listed as Escherichia coli)
chain: MDHRAMKVAVLGAAGGIGQALALLLKTQLPSGSELSLYDIAPVTPGVAVDLSHIPTAVKIKGFSGEDATPALEGADVVLISAGVAAKPGMDRSDLFNVNAGIVKNLVQQVAKTCPKACIGIITNPVNTTVAIAAEVLKKAGVYDKNKLFGVTTLDIIRSNTFVAELKGKQPGEVEVPVIGGHSGVTILPLLSQVPGVSFTEQEVADLTKRIQNAGTEVVEAKAGGGSATLSMGQAAARFGLSLVRALQGEQGVVECAYVEGDGQYARFFSQPLLLGKNGVEERKSIGTLSAFEQNALEGMLDTLKKDIALGEEFVNK
B14: Ll-Ldh: (L)-lactate dehydrogenase of Lactococcus lactis, SEQ ID NO: 6 (protein, listed as Lactococcus lactis)
chain: MADKQRKKVILVGDGAVGSSYAFALVNQGIAQELGIVDLFKEKTQGDAEDLSHALAFTSPKKIYSADYSDASDADLVVLTSGAPQKPGETRLDLVEKNLRITKDVVTKIVASGFKGIFLVAANPVDILTYATWKFSGFPKNRVVGSGTSLDTARFRQALAEKVDVDARSIHAYIMGEHGDSEFAVWSHANVAGVKLEQWFQENDYLNEAEIVELFESVRDAAYSIIAKKGATFYGVAVALARITKAILDDEHAVLPVSVFQDGQYGVSDCYLGQPAVVGAEGVVNPIHIPLNDAEMQKMEASGAQLKAIIDEAFAKEEFASAVKN
B15: Q85N: L. lactis lactate dehydrogenase A, Ll-LdhA, mutant Q85N, SEQ ID No. 30 (protein, listed as Lactococcus lactis)
chain: B14 chain with Q85N

Tests used:
Format in all cases: biochemical
[1] = OHB reductase activity, NADH absorption at 340 nm
Protocol: (§1) Enzymatic assays: The reaction mixture contained 60 mM Hepes (pH 7), 50 mM potassium chloride, 5 mM MgCl2, 0.25 mM NADH, (optionally 5 mM fructose-1,6-bisphosphate) (all products from Sigma), and appropriate amounts of purified malate or lactate dehydrogenase or cell extract. Reactions were started by adding appropriate amounts of 2-oxo-4-hydroxybutyrate (OHB), pyruvate, or oxaloacetate (OAA). Enzymatic assays were carried out at 37° C. in 96-well flat bottomed microtiter plates in a final volume of 250 μL. The reactions were followed by the characteristic absorption of NADH at 340 nm (εNADH=6.22 mM^−1 cm^−1) in a microplate reader (BioRad 680XR).
OHB was synthesized by incubating 125 mM homoserine with snake venom (L)-amino acid oxidase (1.25 U/mL, Sigma) and catalase (4400 U/mL, Sigma) in 100 mM Tris buffer at pH 7.8 for 90 min at 37° C. Subsequently, the reaction mixture was purified on an Amicon™ Ultra centrifugal filter with a cut-off of 10 kDa to eliminate the enzymes (method adapted from Wellner & Lichtenberg, 1971).
OHB was quantified by mixing 100 μL of the tested solution with 1 mL of a solution containing 1 M sodium arsenate and 1 M boric acid at pH 6.5. The mixture was incubated at room temperature for 30 min and the absorbance at 325 nm was used to quantify OHB. The relation between absorbance and concentration of the ketone was calibrated using pyruvate solutions of known concentrations (method adapted from (Wellner & Lichtenberg, 1971)). The typical OHB yield of the method was 90%.

[2] = pyruvate reductase activity, NADH absorption at 340 nm; settings: for Max. specific activity, natural substrate: natural substrate of Ldh: pyruvate, purified enzyme, 37° C., pH 7
Protocol: as §1

[3] = oxaloacetate reductase activity, NADH absorption at 340 nm; settings: for Max. specific activity, OAA: measured at 0.5 mM oxaloacetate
Protocol: as §1

[4] = when not saturated, activity estimated at 20 mM substrate
[5] = E. coli Mdh mutants, measured at 20 mM OHB

Molecule	Max. specific activity, OHB [1, 4]	Max. specific activity, OHB [1, 5]	Max. specific activity, OAA ([3]; E. coli Mdh mutants)	further results
B1	66.8 µmol/mg/min			Max. specific activity, natural substrate [2]: 87.7 µmol/mg/min
B2	0.01 µmol/mg/min	0.01 µmol/mg/min	95 µmol/mg/min	OHB reductase activity, in words [1]: very minor activity; Max. specific activity, natural substrate ([3]; natural substrate of Mdh: oxaloacetate, purified enzyme, 37° C., pH 7): 95.6 µmol/mg/min
B3		19 µmol/mg/min	0.54 µmol/mg/min	Km, OHB ([1]; E. coli Mdh mutants, ns = not saturated up to 50 mM OHB): ns; Km, OAA ([3]; E. coli Mdh mutants, ns = not saturated up to 0.5 mM oxaloacetate): ns
B4		4.16 µmol/mg/min	0.37 µmol/mg/min	
B5		4.9 µmol/mg/min	0.5 µmol/mg/min	
B6		3 µmol/mg/min	1 µmol/mg/min	
B7		12.54 µmol/mg/min	2.2 µmol/mg/min	
B8		14.6 µmol/mg/min	0.67 µmol/mg/min	
B9		18.9 µmol/mg/min	1.84 µmol/mg/min	
B10		4.99 µmol/mg/min	0.5 µmol/mg/min	
B11	15.7 µmol/mg/min			Max. specific activity, natural substrate [2]: 170 µmol/mg/min
B12	0.56 µmol/mg/min			Max. specific activity, natural substrate [2]: 265 µmol/mg/min
B13		1.8 µmol/mg/min	1.16 µmol/mg/min	
B14	18 µmol/mg/min			Max. specific activity, natural substrate [2]: 184 µmol/mg/min
B15				Max. specific activity, OHB ([1]; L. lactis Ll-LdhA mutants): 63.9 µmol/mg/min; Max. specific activity, Pyruvate ([2]; L. lactis Ll-LdhA mutants): 184 µmol/mg/min

Source: US11505811B2, “Method for the preparation of 2,4-dihydroxybutyrate” (ADISSEO FRANCE S.A.S., priority 2012, dated 2022)
